We go through three substances from PMC5816610.

The target in data set [1] is sigma70-RNA polymerase holoenzyme (UniProt P0A7Z4+P0A8V2+P0A8T7+P0A800+P00579). Kind of data set: EMSA. The conditions noted are these: 1x Transcription buffer (composition in cited ref 50), 37 C, 1 pmol DNA, 10 min then 30 min with protein; 5% PAGE in 1xTBE; purified CRP +/-200 uM cAMP ….
The subject of data set [2] is CRP (purified). Description: EMSA. As to conditions: 1x Transcription buffer (composition in cited ref 50), 37 C, 1 pmol DNA, 10 min then 30 min with protein; 5% PAGE in 1xTBE; purified CRP +/-200 uM cAMP ….

“ATTTAACGGCAGCAAGGCTATTCAGCAGTTCGTTCGGGTCAATACCGTCAGCGATCAGCATTTCGCGATATTGCTGCAGTTTACGAGTGCGCTCTTCAACTTC (double strand) [hns internal region without promoters]”: the binding result in data set [1] is “no binding”.
yihU/V intergenic region registered a binding signal (fold vs no cAMP) in data set [2] of 1.3.
On the same count and under the same terms, the figure for yihV/W intergenic region is 1.3.
